Results from paper PMC7804290.
Residue numbers refer to the chain shown, from its start.

B1: scaffold 1 (RMP at -3) (structured_RNA)
RNA 1: UUUUCAUGCAUCGCGUAGGCUCAUACCGUAUUGAGACCUUUUGGUCUCAAUACGGUA
RNA 2: UGAGCCUACGCGAUG
modifications: remdesivir monophosphate (RMP, 1'-cyano-4-aza-7,9-dideazaadenosine) at position 13 of strand 2, written as A
B2: scaffold 2 (RMP at -4) (structured_RNA)
RNA 1: B1 RNA 1 with U11C, C12U
RNA 2: UGAGCCUACGCAGUG
modifications: remdesivir monophosphate (RMP, 1'-cyano-4-aza-7,9-dideazaadenosine) at position 12 of strand 2, written as A (oligo R-4)
B3: scaffold 3 (AMP at -4) (structured_RNA)
RNA 1: B1 RNA 1 with U11C, C12U
RNA 2: UGAGCCUACGCAGUG

Tests used:
[1] = molecular target: T1, nsp12 (RdRp catalytic subunit);nsp8;nsp7 (SARS-CoV-2;SARS-CoV-2;SARS-CoV-2, UniProt P0DTD1;P0DTD1;P0DTD1 4393-5324;3943-4140;3860-3942, ||); assay: cryo-EM (complex isolated by SEC); conditions: protein: recombinant;recombinant;recombinant; copies: 1;2;1
[2] = molecular target: T1, nsp12 (RdRp catalytic subunit);nsp8;nsp7; assay: cryo-EM (complex isolated by SEC); 1 mM Mg2+; AMP control for structure 2; conditions: protein: recombinant;recombinant;recombinant; copies: 1;2;1

Binder | binding result [1] | binding result [2]
B1 | binds | 
B2 | binds | 
B3 |  | binds
